Test results: the supplement of paper PMC10126150
± gives the standard deviation of the averaged measurements.

Test system: ATP
Experiment: switch fluorescence ratio, 500 uM ATP over buffer (Cy3 cluster intensity, sum of 5 cycles each) (fold (ratio)); higher = stronger signal-on switching upon ATP binding; sequences stand for … in TCGTCGGCAGCGTCAGATGTGTATAAGAGACAGTTTTTTTTTTTTTTTTTTTTTTTTT…TC
Settings: aptamer strand: ATP DNA aptamer (quencher-CACCTGGGGGAGTATTGCGGAGGAAGG + anchor), 100 nM annealed; ATP concentration: 500 uM
Summary of the method: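 Cy3-labelled switching-strand clusters on a modified Illumina MiSeq flow-cell were annealed to 100 nM quencher-labelled ATP aptamer, imaged in selection buffer, then imaged after 15 min with 500 uM ATP at 22 °C. Five buffer/ATP cycles ran, with NaOH stripping and re-annealing between them. The fluorescence ratio is summed target-cycle over summed buffer-cycle Cy3 intensity per cluster, averaged per switch-domain sequence. Clusters outside 100-1000 RFU were excluded.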
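Note: ATP exposure 15 min at 22 °C before imaging.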

Row | Sequence | switch fluorescence ratio
1 | CCAGTCATCA | 0.9961 ± 0.0014
2 | TTTGTGAGCA | 1.06 ± 0.08
3 | AGGGGGGCCC | 1 ± 0.037
4 | AATTGGGGGC | 0.98 ± 0.022
5 | CCTAGTCGGC | 1.0715 ± 0.00095
6 | CGCGGGACTT | 2.01 ± 1.4
7 | CGGAGTGGTT | 1 ± 0.017
8 | TGTGGGAGGC | 1.04 ± 0.018
9 | GGTTGGTACG | 1.01 ± 0.019
10 | AACGTTGTTG | 0.976 ± 0.044
11 | GCGGGGTCAG | 0.989 ± 0.025
12 | GAATTTGATG | 1 ± 0.042
13 | GAATCCGCCC | 2.85 ± 0.74
14 | GAGGTCATTA | 0.9895 ± 0.0023
15 | CACCTGCCCC | 1.347 ± 0.011
16 | CACTAGGGGG | 1.05 ± 0.0083
17 | TGGCGGAATT | 1.02 ± 0.02
18 | CGCTATGATG | 0.984 ± 0.028
19 | AATGGGGATT | 1.01 ± 0.035
20 | TGTAGCATGT | 2.08 ± 1.3
21 | AGTTAAGAGC | 1.01 ± 0.038
22 | TAGTTTTTCA | 1.01 ± 0.039
23 | CGTCGAGGCG | 0.971 ± 0.035
24 | TTCTAATTAT | 0.981 ± 0.019
25 | GAAGTTGTTT | 1.018 ± 0.002

Row | Sequence | switch fluorescence ratio
26 | AAGTGAATTA | 1.0037 ± 0.00073
27 | GGATAGAGTG | 0.971 ± 0.052
28 | GATAGGCAAA | 1.017 ± 0.0051
29 | GGGACCAGAT | 1.01 ± 0.033
30 | GGGGGGTCCT | 1 ± 0.018
31 | TAGGGAGGGG | 0.973 ± 0.028
32 | GTCAGAGGGG | 0.979 ± 0.028
33 | CTGGAATGTT | 1.012 ± 0.01
34 | AGTGGGGTTT | 0.976 ± 0.013
35 | TTAGTCCCGC | 1.066 ± 0.0024
36 | TTGTCAGAGT | 1.001 ± 0.0015
37 | AGAAAGGGCC | 0.966 ± 0.055
38 | TGGGGATTGA | 1 ± 0.03
39 | GGTAGCGTCT | 1.06 ± 0.09
40 | GAATAGTGGG | 1.006 ± 0.005
41 | ACTCGATTTT | 1.02 ± 0.033
42 | CTGGGAGGTG | 1.03 ± 0.055
43 | AAACTTGTGA | 1.02 ± 0.024
44 | ATAAATGCCG | 0.961 ± 0.12
45 | TGGTTACGTC | 0.985 ± 0.026
46 | ATGATCAGCT | 0.9824 ± 0.0077
47 | TGATTGATTG | 1.03 ± 0.066
48 | TTTTTGATCT | 0.998 ± 0.016
49 | CTCGAGTAGT | 1.04 ± 0.02
50 | ATGGCTTAAG | 1.006 ± 0.0055

Row | Sequence | switch fluorescence ratio
51 | GGAAGATTTG | 1.06 ± 0.055
52 | TGAGTAAGGG | 0.991 ± 0.029
53 | TGCATTACGT | 1.35 ± 0.015
54 | CGGTGGACTG | 1.07 ± 0.014
55 | TAAGTTTGGT | 0.985 ± 0.021
56 | GAGATTCGCT | 0.988 ± 0.014
57 | TGGAGGTAGT | 0.993 ± 0.033
58 | GAGGGGGGCT | 1.023 ± 0.006
59 | GACGCGAGTT | 1.09 ± 0.022
60 | AGGGTAATGT | 0.9718 ± 0.0036
61 | ATACTCGGTA | 0.997 ± 0.023
62 | CGTAGGCCGA | 0.952 ± 0.068
63 | ATTACCAGGT | 1.27 ± 0.048
64 | TTTCGGTTTT | 1.04 ± 0.11
65 | ATTTTAAATT | 1 ± 0.019
66 | GGGGGTTGTA | 0.978 ± 0.054
67 | TGATTCTTCG | 1.01 ± 0.023
68 | CTCTGGACTA | 1.11 ± 0.017
69 | ACGTATCTCT | 1.17 ± 0.11
70 | GGGAATCCGG | 1.02 ± 0.013
71 | TCGTGTACGC | 1 ± 0.023
72 | GAGTGGTGTT | 0.983 ± 0.049
73 | GTTCGGAATT | 1.031 ± 0.0013
74 | AGGGGGGTG | 1 ± 0.039
75 | AGTCTTGCTG | 0.989 ± 0.02

Row | Sequence | switch fluorescence ratio
76 | TACGTTAGCT | 1.119 ± 0.0018
77 | ATCGACTTGG | 1.016 ± 0.0053
78 | AGGCTCGTAC | 1.08 ± 0.09
79 | TTTAAATGGG | 1 ± 0.021
80 | CGGACCATTC | 1.27 ± 0.032
81 | TCAAAGTCGA | 0.976 ± 0.045
82 | TATGCGGGCG | 0.939 ± 0.072
83 | ATGGGGCGTG | 0.974 ± 0.016
84 | GACGCATCTA | 3.35 ± 0.36
85 | TTTGGGTTGC | 0.982 ± 0.014
86 | AACCCCGGGG | 1.02 ± 0.067
87 | CCGAGGTATC | 3.23 ± 2.1
88 | ACGGGGATTT | 1.01 ± 0.019
89 | AGGCTTTTTG | 0.969 ± 0.015
90 | AATGAGGCTT | 0.996 ± 0.011
91 | TGTGGAAGGG | 0.981 ± 0.019
92 | TTTTGGGTC | 0.999 ± 0.034
93 | TGCGTAAGGG | 1.03 ± 0.011
94 | GGAGGGTTTG | 0.992 ± 0.034
95 | AGGGTTTGGT | 0.982 ± 0.02
96 | AGTTTGTGTG | 0.977 ± 0.014
97 | TAATGTTTGT | 0.986 ± 0.048
98 | ATGTTCAAAG | 0.975 ± 0.017
99 | AAGCTGTAGC | 1.03 ± 0.048
100 | AGAGGAGTTG | 1.03 ± 0.046

Row | Sequence | switch fluorescence ratio
101 | ATCGGACGGG | 1.02 ± 0.016
102 | CGGATGTAAC | 1.02 ± 0.024
103 | ACCTTTAACT | 1.03 ± 0.017
104 | GAAGGGGTAA | 1.18 ± 0.3
105 | TGGGGTTACT | 1.01 ± 0.015
106 | GTGTTTCTAT | 1 ± 0.013
107 | ATCATGGATG | 0.997 ± 0.019
108 | ATATTTCTGG | 0.986 ± 0.018
109 | AGGATACTGG | 0.975 ± 0.031
110 | TTAAGCGGGA | 1.01 ± 0.015
111 | CAGTATTCGG | 1 ± 0.015
112 | TCAGGTTAAG | 0.9954 ± 0.0061
113 | AAAGGATGGT | 0.953 ± 0.022
114 | AGGGTGAGAG | 0.965 ± 0.025
115 | AATGGAAATC | 1.003 ± 0.0086
116 | ACCGTTCACG | 1.02 ± 0.031
117 | TCGGCTTTGA | 1.01 ± 0.03
118 | TGGGAAGGGA | 1.2 ± 0.37
119 | TGGATCTGCC | 1.036 ± 0.0056
120 | ATGCAGCAT | 1.06 ± 0.036
121 | CCCTAGGTTT | 1.73 ± 0.79
122 | TGTTTTATTT | 0.984 ± 0.018
123 | AGTGTATGGC | 1.01 ± 0.032
124 | TCTTTGGACC | 1.04 ± 0.056
125 | TGTTTTATTG | 1.01 ± 0.016

Row | Sequence | switch fluorescence ratio
126 | AGTTAGTGT | 0.978 ± 0.051
127 | ATGTAATAAT | 0.983 ± 0.027
128 | TTCCCCGGTG | 1.21 ± 0.24
129 | TAGTTACACA | 1.04 ± 0.035
130 | GTTTGAGTTG | 1.01 ± 0.038
131 | CCGTGCGTAT | 1.3 ± 0.062
132 | GTTTAAGCGG | 0.969 ± 0.034
133 | TAGGTTAAAG | 1.01 ± 0.027
134 | TGGGGGAAGG | 1.03 ± 0.061
135 | CCAATGGAGG | 0.994 ± 0.034
136 | TTTGAGTAAT | 1.027 ± 0.0017
137 | CCAGTGTCGG | 0.969 ± 0.04
138 | TGTTGCCGAT | 0.986 ± 0.019
139 | TCCTACGTTT | 1.75 ± 0.86
140 | AGGGTGGTTG | 0.987 ± 0.058
141 | CAGGTTTAGG | 1.01 ± 0.021
142 | GGAAACTTAG | 1.019 ± 0.0089
143 | ATATGGTAAA | 0.958 ± 0.015
144 | CTTCTCAGTA | 1.03 ± 0.048
145 | AATGGGTTCC | 1.027 ± 0.0044
146 | TCCAATTTTT | 0.986 ± 0.024
147 | GCAATGAGGG | 1.14 ± 0.034
148 | CTTCGGGGGT | 1.02 ± 0.019
149 | GTTAGGGGG | 1.02 ± 0.023
150 | GATAGGGGGC | 1.13 ± 0.28

Row | Sequence | switch fluorescence ratio
151 | TTGCTTAAGT | 1.03 ± 0.075
152 | GGGTCAGGGA | 1.01 ± 0.065
153 | TCTATATTAG | 1.02 ± 0.023
154 | GGTATAGTTA | 1.02 ± 0.037
155 | GGCAGTCACG | 1.02 ± 0.014
156 | CTTAGGTTGT | 1.004 ± 0.0077
157 | GCAATTTGAT | 1.01 ± 0.02
158 | GGGTGCTCGG | 1 ± 0.019
159 | AGGTTTGGGG | 1.04 ± 0.033
160 | ATAGGTGCTT | 1.131 ± 0.01
161 | TTCTGTCTGT | 1.05 ± 0.052
162 | CGGCTGGAGT | 1.001 ± 0.0043
163 | TTTGCTTTTA | 1.04 ± 0.023
164 | TGTTTAGAAA | 1.01 ± 0.014
165 | GCGTTTGAAA | 1.01 ± 0.013
166 | CGTTTTTAGT | 1.002 ± 0.0072
167 | AGGTTAATTT | 1.01 ± 0.046
168 | AAGGGTCCCG | 0.9735 ± 0.0027
169 | TATGGAGGGG | 0.991 ± 0.032
170 | CAATATTTGC | 0.975 ± 0.035
171 | CTAGGGGGCA | 0.982 ± 0.037
172 | AAAAGTATTA | 1.01 ± 0.025
173 | TCATGTAGGG | 0.989 ± 0.015
174 | TTTAGGTTCC | 1.015 ± 0.005
175 | TGGTTGG | 0.994 ± 0.0015

Row | Sequence | switch fluorescence ratio
176 | TGCAGGGCAG | 0.98885 ± 0.00071
177 | GGTTGAACAT | 0.9661 ± 0.0027
178 | TTTTTCGGGT | 0.974 ± 0.018
179 | ATAGGTAGCG | 1.01 ± 0.023
180 | GGGGTTGATG | 0.965 ± 0.022
181 | AGACGTTATT | 1.15 ± 0.1
182 | ATTTATACTG | 1.05 ± 0.052
183 | CATACCCAAA | 1.05 ± 0.039
184 | TTACCATCGG | 1.01 ± 0.024
185 | CGAAAGGGGA | 1.03 ± 0.018
186 | GTTAATGGGG | 0.986 ± 0.054
187 | TTTGAGATGG | 0.99 ± 0.024
188 | TCTGACTTGA | 0.968 ± 0.018
189 | GTTTGTTCGG | 0.995 ± 0.015
190 | CGGGGGCGGG | 0.99 ± 0.042
191 | TTTCGGAAAT | 1.01 ± 0.016
192 | ATTCGTATGT | 1.03 ± 0.03
193 | TTAGTTATTA | 1.017 ± 0.0041
194 | CATGTTGGAT | 0.964 ± 0.029
195 | AGGGCCCTCG | 0.9898 ± 0.0036
196 | TGACACATGA | 1.02 ± 0.013
197 | GGCGCGGGGG | 1.03 ± 0.023
198 | ATAGATAGGT | 0.99 ± 0.034
199 | GCGTTGGG | 1.02 ± 0.029
200 | GTAGTAAAGG | 0.9867 ± 0.0034
